Measurements published in patent US20250270289.

B1: protein Tyr phosphatase 1B (protein)
chain: MEMEKEFEQIDKSGSWAAIYQDIRHEASDFPCRVAKLPKNKNRNRYRDVSPFDHSRIKLHQEDNDYINASLIKMEEAQRSYILTQGPLPNTCGHFWEMVWEQKSRGVVMLNRVMEKGSLKCAQYWPQKEEKEMIFEDTNLKLTLISEDIKSYYTVRQLELENLTTQETREILHFHYTTWPDFGVPESPASFLNFLFKVRESGSLSPEHGPVVVHCSAGIGRSGTFCLADTCLLLMDKRKDPSSVDIKKVLLEMRKFRMGLIQTADQLRFSYLAVIEGAKFIMGDSSVQDQWKELSHEDLEPPPEHIPPPPRPPKRILEPHN
B2: calf-intestinal alkaline phosphatase (protein)
chain: LVPVEEEDPAFWNRQAAQALDVAKKLQPIQTAAKNVILFLGDGMGVPTVTATRILKGQMNGKLGPETPLAMDQFPYVALSKTYNVDRQVPDSAGTATAYLCGVKGNYRTIGVSAAARYNQCKTTRGNEVTSVMNRAKKAGKSVGVVTTTRVQHASPAGAYAHTVNRNWYSDADLPADAQMNGCQDIAAQLVNNMDIDVILGGGRKYMFPVGTPDPEYPDDASVNGVRKRKQNLVQAWQAKHQGAQYVWNRTALLQAADDSSVTHLMGLFEPADMKYNVQQDHTKDPTLQEMTEVALRVVSRNPRGFYLFVEGGRIDHGHHDDKAYMALTEAGMFDNAIAKANELTSELDTLILVTADHSHVFSFGGYTLRGTSIFGLAPSKALDSKSYTSILYGNGPGYALGGGSRPDVNDSTSEDPSYQQQAAVPQASETHGGEDVAVFARGPQAHLVHGVEEETFVAHIMAFAGCVEPYTDCNLPAPTTATSIPD

Molecular target: Cav(pnY)GFP
Sequence (Q03135 whole entry): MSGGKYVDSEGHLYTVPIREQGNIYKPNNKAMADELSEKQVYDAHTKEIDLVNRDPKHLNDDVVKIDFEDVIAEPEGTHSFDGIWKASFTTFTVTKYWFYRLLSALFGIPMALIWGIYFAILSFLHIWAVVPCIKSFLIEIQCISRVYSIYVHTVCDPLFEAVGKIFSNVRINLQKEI

| Protein | dephosphorylation of pnY (Western blot with phospho-caveolin antibody) | dephosphorylation of pnY, seen as loss of the phospho-caveolin antibody signal in a Western blot |
| --- | --- | --- |
| B1 | Cav(pnY)GFP was stable in buffered conditions, but dephosphorylated in a time and concentration dependent fashion | IB:pCav band present with PTP1B buffer alone, absent with PTP1B buffer + enzyme; total protein band present in both lanes, faint in the enzyme lane |
| B2 | Cav(pnY)GFP was stable in buffered conditions, but dephosphorylated in a time and concentration dependent fashion | IB:pCav band present with CIP buffer alone, absent with CIP buffer + enzyme; total protein band present in both lanes |
